Data set [1] addresses His-tagged inceptor ectodomain (human) (UniProt Q6UXG2). The data set is described as follows: native MS; charge detection mass spectrometry (CDMS), Orbitrap Q Exactive UHMR; inceptor ECD-His (5 µM) alone or with insulin at 1:6 and 1:20, or with proinsulin; 150 mM ammonium acetate, pH 3–7; 37 °C for 30 min.
Data set [2] concerns the target inceptor–HaloTag fusion protein (FRET experiments, INS-1E cells) (human) (UniProt Q6UXG2). The data set can be described thus: FRET or BRET; live INS-1E cells overexpressing inceptor–HaloTag labelled with TMR; 100 nmol/l INS-630 and 0, 10, 100 and 1,000 nmol/l proinsulin in the medium for 40 min; corrected FRET efficiency by confocal imaging.
Data set [3] concerns the molecule itself. The data set is described as follows: native MS; charge detection mass spectrometry (CDMS), Orbitrap Q Exactive UHMR; inceptor ECD-His (5 µM) alone or with insulin at 1:6 and 1:20, or with proinsulin; 150 mM ammonium acetate, pH 3–7; 37 °C for 30 min.

The source of these data is PMC11659164, “Inceptor binds to and directs insulin towards lysosomal degradation in β cells” (Nature Metabolism, 2024).

As usually defined, the stoichiometry N is the number of molecules, sites or subunits per partner or assembly.

In data set [1], bovine proinsulin (ligand) returned a N for each inceptor dimer of 1 and a stoichiometry N of 1.

As to “proinsulin (unlabelled, added to the medium in the FRET experiments) (ligand)”, the reduction of the FRET signal of inceptor to INS-630 at a 1:10 molar ratio of proinsulin to insulin in data set [2] came to 50%.

B1: His-tagged inceptor ectodomain (domain or fragment, human, UniProt Q6UXG2 42-910, looked up)
chain: TGPELHACKESEYHYEYTACDSTGSRWRVAVPHTPGLCTSLPDPIKGTECSFSCNAGEFLDMKDQSCKPCAEGRYSLGTGIRFDEWDELPHGFASLSANMELDDSAAESTGNCTSSKWVPRGDYIASNTDECTATLMYAVNLKQSGTVNFEYYYPDSSIIFEFFVQNDQCQPNADDSRWMKTTEKGWEFHSVELNRGNNVLYWRTTAFSVWTKVPKPVLVRNIAITGVAYTSECFPCKPGTYADKQGSSFCKLCPANSYSNKGETSCHQCDPDKYSEKGSSSCNVRPACTDKDYFYTHTACDANGETQLMYKWAKPKICSEDLEGAVKLPASGVKTHCPPCNPGFFKTNNSTCQPCPYGSYSNGSDCTRCPAGTEPAVGFEYKWWNTLPTNMETTVLSGINFEYKGMTGWEVAGDHIYTAAGASDNDFMILTLVVPGFRPPQSVMADTENKEVARITFVFETLCSVNCELYFMVGVNSRTNTPVETWKGSKGKQSYTYIIEENTTTSFTWAFQRTTFHEASRKYTNDVAKIYSINVTNVMNGVASYCRPCALEASDVGSSCTSCPAGYYIDRDSGTCHSCPTNTILKAHQPYGVQACVPCGPGTKNNKIHSLCYNDCTFSRNTPTRTFNYNFSALANTVTLAGGPSFTSKGLKYFHHFTLSLCGNQGRKMSVCTDNVTDLRIPEGESGFSKSITAYVCQAVIIPPEVTGYKAGVSSQPVSLADRLIGVTTDMTLDGITSPAELFHLESLGIPDVIFFYRSNDVTQSCSSGRSTTIRVRCSPQKTVPGSLLLPGTCSDGTCDGCNFHFLWESAAACPLCSVADYHAIVSSCVAGIQKTTYVWREPKLCSGGISLPEQRVTICKTIDFWLK
notes: signal peptide in the construct; ectodomain of human inceptor (KIAA1324), Uniprot entry Q6UXG2, residues 1–910; Seen as monomer and, prevalently, as dimer by CDMS; also called inceptor ECD-His; inceptor ECD-6×His; source: HEK293 (pCDNA3-inceptor ECD-6×His), purified
Take B1: the “stoichiometry N” value in data set [3] is 2.
